# Measured values from IntAct's records for PubMed 18394558.
# B1: Cyclin-dependent kinase 4 inhibitor C (Homo sapiens), P42773 (parent)
# chain: MAEPWGNELASAAARGDLEQLTSLLQNNVNVNAQNGFGRTALQVMKLGNPEIARRLLLRGANPDLKDRTGFAVIHDAARAGFLDTLQTLLEFQADVNIEDNEGNLPLHLAAKEGHLRVVEFLVKHTASNVGHRNHKGDTACDLARLYGRNEVVSLMQANGAGGATNLQ
# Variants of: B1
# Conditions: with cdk6_human CDK6, Q00534
# cdk6_human CDK6, Q00534, sequence (Q00534 whole entry): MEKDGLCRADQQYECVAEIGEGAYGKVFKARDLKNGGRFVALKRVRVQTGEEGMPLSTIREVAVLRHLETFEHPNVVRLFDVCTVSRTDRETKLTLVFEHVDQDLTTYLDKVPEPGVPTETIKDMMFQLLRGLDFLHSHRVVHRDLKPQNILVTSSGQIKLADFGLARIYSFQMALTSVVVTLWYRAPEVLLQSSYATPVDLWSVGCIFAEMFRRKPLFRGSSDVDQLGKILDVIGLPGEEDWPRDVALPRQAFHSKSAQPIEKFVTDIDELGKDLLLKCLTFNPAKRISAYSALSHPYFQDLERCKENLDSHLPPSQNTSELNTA
row,effect of a mutation on the interaction,Variant
1,decreasing interaction,A61D
2,disrupting interaction,F37I
